Where “and” joins values, the source holds several entries; their conditions need not be identical. Identical values can stand only once. Entries after “also recorded” stand apart in the source; their conditions may differ.
Columns and labels:
[1] = system: atrial natriuretic factor (ANF); experiment: Transcription of atrial natriuretic factor by RT-PCR in neonatal cardiomyocytes; type: cell-based, rat; conditions: 72 hr stimulation
Protocol: RNA was prepared using Trizol reagent (Invitrogen) from neonatal rat ventricular cardiomyocytes after 72 hr of stimulation. Complementary DNA was synthesized from 2 μg RNA with the SuperScriptIII kit (Invitrogen) using oligo-dT primers. One μL cDNA was used as template for 20 μL PCR-reactions (95° C. for 2 min, 30 cycles of 95° C. for 2 min, 55° C. for 2 min, 72° C. for 5 min, followed by 72° C. for 10 min). Oligonucleotide primers used for detection of ANF were F: 5′-[…]-3′ (Seq ID No. 2), R: 5′-[…]-3′ (Seq ID No. 3), β-actin were F: 5′-[…]-3′ (Seq ID No. 4), R: 5′-[…]-3′ (Seq ID No. 5), […] were F: 5′-[…]-3′ (Seq ID No. 6), R: 5′-[…]-3′ (Seq ID No. 7); SMA were F: 5′-[…]-3′ (Seq ID No. 8), R: 5′-[…]-3′ (Seq ID No. 9); SERCA2 were F: 5′-[…]-3′ (Seq ID No. 10), R: 5′-[…]-3′ (Seq ID No. 11), and for GAPDH: 5′-[…]-3′ (Seq ID No. 12), R: 5′-[…]-3′ (Seq ID No. 13).

[2] = system: Adult male Sprague-Dawley rats; experiment: Rat model of myocardial infarction: analysis of myocardial regeneration (histology, immunofluorescence); type: in vivo
Protocol: Horizontal cryosections of 14 μm thickness spaced at 1 mm intervals were analyzed. To determine infarct size, Masson's Trichrome-stained sections were analyzed at 1× magnification. The infarct border zone was defined as myocardial tissue within 0.5 mm of the fibrous scar tissue. Fibrosis and cardiomyocyte cross-sectional area were determined after staining with Masson's Trichrome at 10× and 40× magnification, respectively, and quantified using the Metamorph software package. BrdU-positive cardiac fibroblast nuclei were determined at 5 cross-sections per heart at the level of the myocardial infarction. Cardiomyocyte nuclei were counted using the optical dissector method (Howard, C. V. & Reed, M. Unbiased Stereology: Three-Dimensional Measurement In Microscopy, (BIOS Scientific Publishers, Oxford, 2005)) on troponin T and DAPI-stained sections in 32-60 random sample volumes of […] per heart. BrdU-positive cardiomyocyte nuclei were quantified on 16-20 sections per heart. […] Adult male Sprague-Dawley rats (300 gm, Charles River Laboratories) underwent experimental myocardial infarction as described (del Monte, F. et al. Abrogation of ventricular arrhythmias in a model of ischemia and reperfusion by targeting myocardial calcium cycling. Proc Natl Acad Sci USA 101, 5622-7 (2004)). The survival rate was 67%. Gelfoam loaded with 100 μg of recombinant periostin or with buffer were applied over the myocardial infarction at the time of surgery. […] Echocardiography and hemodynamic catheterization were performed as described (Prunier, F. et al. Am J Physiol Heart Circ Physiol (2006)). Horizontal cryosections of 14 μm thickness spaced at 1 mm intervals were analyzed. Masson's Trichrome-stained sections were analyzed at 10× magnification to determine infarct size (Pasumarthi, K. B., et al. Circ Res 96, 110-8 (2005)), defined as [coronal infarct perimeter (epicardial+endocardial)/total coronal perimeter (epicardial+endocardial)]×100 and thinning index (Engel, F. B., et al. Proc Natl Acad Sci USA 103, 15546-51 (2006)), defined as minimal infarct wall thickness/maximal septal wall thickness. The infarct border zone was defined as myocardial tissue within 0.5 mm of the fibrous scar tissue. Fibrosis was determined on 10× images of Masson's Trichrome stainings and quantified using the Metamorph software package (Molecular Devices Corp.). Cardiomyocyte cross-sectional area was determined after staining with Masson's Trichrome at 40× magnification and quantified using the Metamorph software package. BrdU-positive cardiac fibroblast nuclei were determined at 5 cross-sections per heart at the level of the myocardial infarction. Cardiomyocyte nuclei were counted on troponin T and DAPI-stained sections in 32-60 random sample volumes of 84,500 μm^3 per heart. BrdU-positive cardiomyocyte nuclei were quantified on 16-20 sections per heart. Capillaries and stem cells were detected with antibodies against von Willebrand factor (vWF) and c-kit, respectively, and quantified at 5 cross-sections per heart at the level of the myocardial infarction.

[3] = 1 week, infarct and border zone

B1: periostin: Recombinant periostin, purified from HEK293 cells expressing the full-length human cDNA; secreted protein of 834 amino acids (Seq ID. No. 1) (protein, listed as Homo sapiens)
chain: MIPFLPMFSLLLLLIVNPINANNHYDKILAHSRIRGRDQGPNVCALQQILGTKKKYFSTCKNWYKKSICGQKTTVLYECCPGYMRMEGMKGCPAVLPIDHVYGTLGIVGATTTQRYSDASKLREEIEGKGSFTYFAPSNEAWDNLDSDIRRGLESNVNVELLNALHSHMINKRMLTKDLKNGMIIPSMYNNLGLFINHYPNGVVTVNCARIIHGNQIATNGVVHVIDRVLTQIGTSIQDFIEAEDDLSSFRAAAITSDILEALGRDGHFTLFAPTNEAFEKLPRGVLERFMGDKVASEALMKYHILNTLQCSESIMGGAVFETLEGNTIEIGCDGDSITVNGIKMVNKKDIVTNNGVIHLIDQVLIPDSAKQVIELAGKQQTTFTDLVAQLGLASALRPDGEYTLLAPVNNAFSDDTLSMVQRLLKLILQNHILKVKVGLNELYNGQILETIGGKQLRVFVYRTAVCIENSCMEKGSKQGRNGAIHIFREIIKPAEKSLHEKLKQDKRFSTFLSLLEAADLKELLTQPGDWTLFVPTNDAFKGMTSEEKEILIRDKNALQNIILYHLTPGVFIGKGFEPGVTNILKTTQGSKIFLKEVNDTLLVNELKSKESDIMTTNGVIHVVDKLLYPADTPVGNDQLLEILNKLIKYIQIKFVRGSTFKEIPVTVYTTKIITKVVEPKIKVIEGSLQPIIKTEGPTLTKVKIEGEPEFRLIKEGETITEVIHGEPIIKKYTKIIDGVPVEITEKETREERIITGPEIKYTRISTGGGETEETLKKLLQEEVTKVTKFIEGGDGHLFEDEEIKRLLQGDTPVRKLQANKKVQGSRRRLREGRSQ
- transcription of atrial natriuretic factor (ANF) [1]: did not induce
- number of c-kit-positive cells in infarct and border zone vs control ([2]; 1 and 12 weeks): did not differ
- mitosis (H3P), of cardiomyocyte nuclei ([2]; 1 week): 0.1±0.01%
- infarct size vs control ([2]; 1 week after MI): same infarct size
- number of BrdU-positive cardiac fibroblasts ([2]; 1 week after MI): decreased
- number of cardiomyocyte nuclei vs control ([2]; 1 week after MI): same number of nuclei
- proportion of cycling cardiomyocytes vs proportion of apoptotic cardiomyocytes ([2]; 1 week after MI): five-fold higher
- arteriolar density vs control [2, 3]: did not differ
- capillary density vs control [2, 3]: did not differ
- mitosis (H3P), of cardiomyocyte nuclei ([2]; 12 weeks): 0.2±0.5%
- fibrotic tissue ([2]; 12 weeks after MI): significantly decreased
- heart weight vs buffer-treated rats ([2]; 12 weeks after MI): similar
- increase in arteriolar density compared with control hearts ([2]; 12 weeks after MI): 1.5 fold
- increase in capillary density compared with control hearts ([2]; 12 weeks after MI): 4 fold
- infarct size smaller compared with control hearts ([2]; 12 weeks after MI): 50%
- left ventricular free wall thickness vs control ([2]; 12 weeks after MI): thicker
- more cardiomyocyte nuclei than control hearts ([2]; 12 weeks after MI): 6.2×10^6
- proportion of cycling cardiomyocytes vs proportion of apoptotic cardiomyocytes ([2]; 12 weeks after MI): 100 fold
- scar volume vs control ([2]; 12 weeks after MI): smaller scar volume
- septum thickness vs control ([2]; 12 weeks after MI): thinner
- thinning index ([2]; 12 weeks after MI): improved thinning index
- increased capillary density compared with control animals ([2]; FIG. 11A, time not given, legend b80: one week): 4 fold
- number of stem cells (c-kit) vs buffer treated hearts ([2]; FIG. 11B): similar
- calculated new cardiomyocyte nuclei from BrdU rate ([2]; after 12 weeks): 7.2×10^6 per heart
- cross-sectional cardiomyocyte area vs control ([2]; after MI): smaller
- increase of DNA synthesis compared with buffer-treated animals ([2]; after MI): 10 fold
- left ventricular cardiomyocyte nuclei ([2]; after MI (FIG. 9i)): 18.8 million
- cardiomyocyte apoptosis vs control ([2]; after MI, 1 and 12 weeks): without changing the rate of apoptosis; also recorded: without affecting apoptosis; also recorded: similar
- DNA synthesis, cardiomyocytes per heart ([2]; after MI, 3 BrdU injections): 5,268±402 per heart
- BrdU uptake, of cardiomyocytes ([2]; infarct and border zone, 1 week): 0.6±0.07%
- BrdU uptake, of cardiomyocytes ([2]; infarct and border zone, 12 weeks): 1±0.3%
- calculated cardiomyocyte nuclei generated from rate of mitosis ([2]; over 12 weeks): 5.5×10^6
- cardiomyocyte mitoses (metaphase chromosomes) ([2]; periostin-treated hearts, n=6): 4,737±770
- cell-cycle reentry, of all cardiomyocytes in the infarct border zone ([2]; rat, in vivo): 0.6-1%
- rate of cardiomyocytes entering the cell cycle ([2]; rat, in vivo): 3,727 per hour
- cell-cycle reentry of differentiated cardiomyocytes ([2]; single injection of BrdU, labeling for 6.4 h, n=3): 23,852±1,709 per heart
- BrdU-labeled cardiomyocytes / cell cycle re-entry in the infarct border zone ([2]; three injections of BrdU): 1.4% and 1.4±0.5%

— patent US8936806B2, “Periostin induces proliferation of cardiomyocytes and promotes cardiac regeneration” (Children's Medical Center Corporation, priority 2007, dated 2015)
